Source: patent US20200283482A1, “BICYCLIC PEPTIDE LIGAND PRR-A CONJUGATES AND USES THEREOF” (BicycleRD Limited, priority 2017, published 2020)
Starred links: 1 amine or outer side, 2 acyl side, 3 side chain; linkers in the order of their positions; H or OH if unused. Positions of bridges follow the written chain, without caps; N, C: chain ends. Non-standard residues stand in square brackets, D forms with d. Residues, ends and D or L forms follow the SMILES beside them. *: point of attachment. X13 = CCOCc1nc2c(NC(=O)N(C)CCN(C)C(=O)OCc3ccc(NC(=O)[C@H](CCCNC(N)=O)NC(=O)[C@@H](NC(=O)Cn4cc(CCC(=O)*)nn4)C(C)C)cc3)nc3ccccc3c2n1CC(C)(C)O; X7 = CCOCc1nc2c(NC(=O)CCCNC(=O)OCc3ccc(NC(=O)[C@H](CCCNC(N)=O)NC(=O)[C@@H](NC(=O)Cn4cc(CCC(=O)*)nn4)C(C)C)cc3)nc3ccccc3c2n1CC(C)(C)O; X4 = CCN(Cc1nc2c(N)nc3ccccc3c2n1CC(C)(C)O)C(=O)OCc1ccc(NC(=O)[C@H](CCCNC(N)=O)NC(=O)C2(C(=O)*)CCC2)cc1; X8 = CCOCc1nc2c(NC(=O)OCc3ccc(NC(=O)[C@H](CCCNC(N)=O)NC(=O)C4(C(=O)*)CCC4)cc3)nc3ccccc3c2n1CC(C)(C)O; 1Nal = N[C@@H](Cc1cccc2ccccc12)C(=O)O; TBMB = c1c(C[*:1])cc(C[*:3])cc1C[*:2]; X5 = O=C(CCc1cn(CCCN[*:1])nn1)[*:2]; Tle = CC(C)(C)[C@H](N)C(=O)O; βAla = NCCC(=O)O; Sar = CNCC(=O)O

How the values were obtained:
Plasma stability, human = type: in vitro ADME; details: human, plasma, pH 7.4
Procedure: (§1) The pooled frozen mouse, rat, dog, monkey or human plasma is thawed in a water bath at 37° C. prior to experiment. Plasma is centrifuged at 4000 rpm for 5 min and the clots are removed if any. […] For positive controls, 100 μM intermediate solution is prepared by diluting 20 μL of the stock solution with 180 μL 45% MeOH/H2O. […] For compounds I-7 to […]-17, […]-22, and […]-33, at each time point (0, 1, 2, 4, 6 and 24 hr), reactions were stopped by removing the plates from water bath and 200 μL 20 mM NH4OAC mix well first and then adding 800 μL of ice-cold stop solution (200 ng/mL Labetalol, 200 ng/mL Tolbutamide, 500 ng/mL N6-Ben and 40 mM DBAA in 100% Methanol). […] Sample plates were vortexed immediately on a plate shaker at 800 rpm for 10 min and then centrifuged at 4,000 rpm for 10 min. An aliquot of supernatant (200 μL) is transferred from each well before submitting to LC-MS/MS analysis. The percentage of test compound remaining at the individual time points relative to the 0 hour sample is calculated using following equation: Percent Remaining=100×(PAR at appointed incubation time/PAR at T0 time) where PAR is the peak area ratio of analyte versus internal standard (IS).

Plasma stability, cyno = type: in vitro ADME; details: cynomolgus monkey, plasma, pH 7.4
Procedure: as §1

Plasma stability, rat = type: in vitro ADME; details: rat, plasma, pH 7.4
Procedure: as §1

Plasma stability, mouse = type: in vitro ADME; details: mouse, plasma, pH 7.4
Procedure: as §1

Blood stability, mouse = type: in vitro ADME, CD-1 mouse; details: male, CD-1, mouse
Procedure: CD-1 mouse blood (n≥2, male, fasted overnight) is collected from animals housed at an internal facility. (EDTA-K2 is used as anticoagulant)
The test compounds and positive control stock solutions are prepared to 10 mM in DMSO or ultrapure water. Control compounds bisacodyl, enalapril and propantheline known to be metabolised by blood are also incubated alongside each batch of test compounds I-7, I-22, I-24, I-25, I-27, and I-29 to I-33. The dosing solutions of test compounds and controls are prepared by diluting the stock solution with 45% MeOH/H2O to achieve 100 uM. Test compound solutions (final incubation concentration=2 μM) are incubated with blood (final DMSO concentration≤1%) at six different time points (0, 1, 2, 4, 6 and 24 hours) in duplicate (n=2). The reaction is terminated by adding 100 uL ultra-pure water, mixing well, then adding 800 uL of 100% methanol containing 200 ng/mL tolbutamide and 200 ng/mL labetalol as internal standards. Samples are then vortexed and centrifuged at 3200×g for 20 minutes. Following centrifugation, the concentration of test compound in the supernatant is determined semi-quantitatively by LC-MS/MS. The percentage of test compound remaining at the individual time points relative to the 0 hour sample is then reported. The percent remaining of test compound after incubation in blood is calculated using following equation: Percent Remaining=100×(PAR at appointed incubation time/PAR at T0 time) where PAR is the peak area ratio of analyte versus internal standard (IS).

Compound | half-life at 2 μM (Plasma stability, human) [h] | half-life at 2 μM (Plasma stability, cyno) [h] | half-life at 2 μM (Plasma stability, rat) [h] | half-life at 2 μM (Plasma stability, mouse) [h] | half-life at 2 μM (Blood stability, mouse) [h]
CCOCc1nc2c(NC(=O)CCCNC(=O)OCc3ccc(NC(=O)[C@H](CCCNC(N)=O)NC(=O)[C@@H](NC(=O)Cn4cc(CCC(=O)NCCC(=O)N(C)CC(=O)N(C)CC(=O)N(C)CC(=O)N(C)CC(=O)N(C)CC(=O)N(C)CC(=O)N(C)CC(=O)N(C)CC(=O)N(C)CC(=O)N(C)CC(=O)N[C@@H](C)C(=O)N[C@H]5CSCc6cc7cc(c6)CSC[C@H](NC(=O)[C@@H](C)NC(=O)[C@H](Cc6cccc8ccccc68)NC(=O)[C@H](CCC(=O)O)NC(=O)[C@H](CC(N)=O)NC(=O)[C@@H](C)NC5=O)C(=O)N[C@@H](CCC(=O)O)C(=O)N[C@@H](CC(=O)O)C(=O)N[C@@H](Cc5ccccc5)C(=O)N[C@@H](Cc5ccc(O)cc5)C(=O)N[C@@H](CC(=O)O)C(=O)N[C@@H](C(C)(C)C)C(=O)N[C@H](C(N)=O)CSC7)nn4)C(C)C)cc3)nc3ccccc3c2n1CC(C)(C)O [I-27] ({X7-βAla}-[Sar][Sar][Sar][Sar][Sar][Sar][Sar][Sar][Sar][Sar]AC[dA]NE[1Nal][dA]CEDFYD[Tle]C-NH2; linker 12-18-25 via TBMB) | > 24 | > 24 | > 24 | < 2 | 2 to 6
CCOCc1nc2c(NC(=O)OCc3ccc(NC(=O)[C@H](CCCNC(N)=O)NC(=O)C4(C(=O)NCCCn5cc(CCC(=O)NCCC(=O)N(C)CC(=O)N(C)CC(=O)N(C)CC(=O)N(C)CC(=O)N(C)CC(=O)N(C)CC(=O)N(C)CC(=O)N(C)CC(=O)N(C)CC(=O)N(C)CC(=O)N[C@@H](C)C(=O)N[C@H]6CSCc7cc8cc(c7)CSC[C@H](NC(=O)[C@@H](C)NC(=O)[C@H](Cc7cccc9ccccc79)NC(=O)[C@H](CCC(=O)O)NC(=O)[C@H](CC(N)=O)NC(=O)[C@@H](C)NC6=O)C(=O)N[C@@H](CCC(=O)O)C(=O)N[C@@H](CC(=O)O)C(=O)N[C@@H](Cc6ccccc6)C(=O)N[C@@H](Cc6ccc(O)cc6)C(=O)N[C@@H](CC(=O)O)C(=O)N[C@@H](C(C)(C)C)C(=O)N[C@H](C(N)=O)CSC8)nn5)CCC4)cc3)nc3ccccc3c2n1CC(C)(C)O [I-29] (X8-[X5][βAla][Sar][Sar][Sar][Sar][Sar][Sar][Sar][Sar][Sar][Sar]AC[dA]NE[1Nal][dA]CEDFYD[Tle]C-NH2; linker 14-20-27 via TBMB) | > 24 | > 24 | 6 to 24 | > 24 | < 2
CCN(Cc1nc2c(N)nc3ccccc3c2n1CC(C)(C)O)C(=O)OCc1ccc(NC(=O)[C@H](CCCNC(N)=O)NC(=O)C2(C(=O)NCCCn3cc(CCC(=O)NCCC(=O)N(C)CC(=O)N(C)CC(=O)N(C)CC(=O)N(C)CC(=O)N(C)CC(=O)N(C)CC(=O)N(C)CC(=O)N(C)CC(=O)N(C)CC(=O)N(C)CC(=O)N[C@@H](C)C(=O)N[C@H]4CSCc5cc6cc(c5)CSC[C@H](NC(=O)[C@@H](C)NC(=O)[C@H](Cc5cccc7ccccc57)NC(=O)[C@H](CCC(=O)O)NC(=O)[C@H](CC(N)=O)NC(=O)[C@@H](C)NC4=O)C(=O)N[C@@H](CCC(=O)O)C(=O)N[C@@H](CC(=O)O)C(=O)N[C@@H](Cc4ccccc4)C(=O)N[C@@H](Cc4ccc(O)cc4)C(=O)N[C@@H](CC(=O)O)C(=O)N[C@@H](C(C)(C)C)C(=O)N[C@H](C(N)=O)CSC6)nn3)CCC2)cc1 [I-30] (X4-[X5][βAla][Sar][Sar][Sar][Sar][Sar][Sar][Sar][Sar][Sar][Sar]AC[dA]NE[1Nal][dA]CEDFYD[Tle]C-NH2; linker 14-20-27 via TBMB) | > 24 | > 24 | > 24 | > 24 | 6 to 24
CCOCc1nc2c(NC(=O)N(C)CCN(C)C(=O)OCc3ccc(NC(=O)[C@H](CCCNC(N)=O)NC(=O)[C@@H](NC(=O)Cn4cc(CCC(=O)NCCC(=O)N(C)CC(=O)N(C)CC(=O)N(C)CC(=O)N(C)CC(=O)N(C)CC(=O)N(C)CC(=O)N(C)CC(=O)N(C)CC(=O)N(C)CC(=O)N(C)CC(=O)N[C@@H](C)C(=O)N[C@H]5CSCc6cc7cc(c6)CSC[C@H](NC(=O)[C@@H](C)NC(=O)[C@H](Cc6cccc8ccccc68)NC(=O)[C@H](CCC(=O)O)NC(=O)[C@H](CC(N)=O)NC(=O)[C@@H](C)NC5=O)C(=O)N[C@@H](CCC(=O)O)C(=O)N[C@@H](CC(=O)O)C(=O)N[C@@H](Cc5ccccc5)C(=O)N[C@@H](Cc5ccc(O)cc5)C(=O)N[C@@H](CC(=O)O)C(=O)N[C@@H](C(C)(C)C)C(=O)N[C@H](C(N)=O)CSC7)nn4)C(C)C)cc3)nc3ccccc3c2n1CC(C)(C)O [I-31] ({X13-βAla}-[Sar][Sar][Sar][Sar][Sar][Sar][Sar][Sar][Sar][Sar]AC[dA]NE[1Nal][dA]CEDFYD[Tle]C-NH2; linker 12-18-25 via TBMB) | > 24 | > 24 | > 24 | > 24 | 
